Patent publication US10308692B2, “Variants of GAL2 transporter and their uses” (Johann Wolfgang Goethe-Universität Frankfurt, priority 2014, dated 2019)

Tested on: AFY10X
Test: epPCR-screening by replica-plating on xylose plus glucose media
Assay type: cell-based, Saccharomyces cerevisiae
Conditions: media with 1% xylose and increasing amounts of glucose (up to 5%)
Source text: Mutants of GAL2 were created using error-prone PCR (epPCR) and then screened in AFY10X as described in Farwick et al. (2014). This method is faster than evolutionary engineering experiments and more often generates multiple mutations per ORF that might have a unique combined effect. On the downside, there might be more silent mutations among the increased number of mutations which might aggravate the identification of the relevant mutations in each clone. The GAL2 ORF was amplified in an epPCR with short amplification primers, applying various mutation rates, and the purified fragments then again amplified for recombinational cloning in a second PCR. Functional plasmids were in vivo assembled from PCR fragments and linearized p426H7 vector directly in the screening strain AFY10X. Transformants were plated out on selective SCE2 plates and subsequently screened. Colonies were tested for improved growth on media with 1% xylose and increasing amounts of glucose (up to 5%) by replica-plating. Seven clones were selected and grown in SCE2 ura^− leu^−+G418+2-DOG and samples of these cultures streaked out on plates for comparison and to obtain single colonies. Five of these seven clones were confirmed to grow on xylose glucose media. The plasmids of two clones were successfully isolated as described (yeast DNA was digested with EcoRI) and sequenced.

B1: Gal2_ep3.3: Gal2 epPCR clone with mutations T219S M255L R267C L299S N346I E528D (protein, UniProt P13181 1-574, looked up, variant T219S M255L R267C L299S N346I E528D)
Galactose transporter: MAVEENNMPVVSQQPQAGEDVISSLSKDSHLSAQSQKYSNDELKAGESGSEGSQSVPIEIPKKPMSEYVTVSLLCLCVAFGGFMFGWDTGTISGFVVQTDFLRRFGMKHKDGTHYLSNVRTGLIVAIFNIGCAFGGIILSKGGDMYGRKKGLSIVVSVYIVGIIIQIASINKWYQYFIGRIISGLGVGGIAVLCPMLISEIAPKHLRGTLVSCYQLMISAGIFLGYCTNYGTKSYSNSVQWRVPLGLCFAWSLFLIGALTLVPESPCYLCEVNKVEDAKRSIAKSNKVSPEDPAVQAESDLIMAGIEAEKLAGNASWGELFSTKTKVFQRLLMGVFVQMFQQLTGINYFFYYGTVIFKSVGLDDSFETSIVIGVVNFASTFFSLWTVENLGHRKCLLLGAATMMACMVIYASVGVTRLYPHGKSQPSSKGAGNCMIVFTCFYIFCYATTWAPVAWVITAESFPLRVKSKCMALASASNWVWGFLIAFFTPFITSAINFYYGYVFMGCLVAMFFYVFFFVPETKGLSLDEIQELWEEGVLPWKSEGWIPSSRRGNNYDLEDLQHDDKPWYKAMLE
For B1, the “growth on medium (xylose + glucose)” value was 1 + 3.
